Results as given in paper PMC11135836.

System: T1, RstA (Escherichia coli LF82 (adherent-invasive)?), ORF:9fe818c8
T1 sequence: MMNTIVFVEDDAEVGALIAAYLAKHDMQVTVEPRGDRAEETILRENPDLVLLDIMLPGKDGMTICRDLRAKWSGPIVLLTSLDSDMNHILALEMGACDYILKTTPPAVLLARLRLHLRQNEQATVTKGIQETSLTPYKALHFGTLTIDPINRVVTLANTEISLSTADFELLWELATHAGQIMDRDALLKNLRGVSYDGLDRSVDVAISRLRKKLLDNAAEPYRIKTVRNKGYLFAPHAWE
Assay: EMSA
Details: EMSA: 40 ng PCR fragment, 0-2 uM RstA, 20 uL; 1 mM Tris-HCl pH 7.5, 0.2 mM DTT, 5 mM MgCl2, 10 mM KCl, 10% glycerol, 30 mM acetyl phosphate; 25 C 30 min …

Sequence | binding
ATGACGAAAGGACTACAGCGAAATATTTTTTATATGCATTATTAGTAAGTTAGCACCATTTGTATGATTTTTTAAAATTGTGCAATAAAAACCAAATGTACAACTTTTCTATCATTTATAAACTTAATAAAACCTTAAGGTTAACATTTTAATATAACGAGTTGCATTTAGTTACATGTTTAACACTTGATTTAAGATTTGTAATGGCTAGATTGAAATCAGATGTAATCCATTAGTTTTATATTTTACCCATTTAGGGCTGATTTATTACTACACACA (double strand) [csgD promoter] | binds
CAAGCAAAAGCCTGGTTCCGCCGATTTATCGCTGCGGCAAATAACGCAGCGGGTTTACGGATTTCCCCTTGTAACGAATTTCAAAATGCAAGCGTGTTGAACTGGTTCCGGTGCTACCCATGGTTGCTATTTTTTGCCCCGCCTTCACTTCTTGTTGTTCCCGGACCAGCATTGTGTCGTTATGGGCGTAGG (double strand) [rpoS promoter (negative control)] | no binding
TGCGCAGTTATTCTACCGCTTTGTAAGTAGTAAAATAGTTAACACGATCAAGACTACTATTATTGGTAGCTAAATTTTCCTTAAGTCACAATACGTTATTATCAATGCTGTAATTTATTCAGCGTTTGTACATATCGTTACACGCTGAAACCAACCACTCACGGAAGTCTGCCATTCC (double strand) [asr promoter] | binds
